In paper PMC3433420, “Comprehensive Binary Interaction Mapping of SH2 Domains via Fluorescence Polarization Reveals Novel Functional Diversification of ErbB Receptors” (PLoS ONE, 2012) one finds Kd, IC50 and Ki data, which are given here for 16 molecules.

Non-standard residues stand in square brackets, D forms with d. No end group written: not given here. pY = N[C@@H](Cc1ccc(OP(=O)(O)O)cc1)C(=O)O; Rhodamine = not defined here; rhodamine = not defined here Where only a bound is given, the exact number is not on record here.

Common to all, as to conditions: both partners purified
Test [1] concerns the target T1, PIK3R1 N-terminal SH2 domain (human).
T1 construct: PIK3R1, human; source: bacterial expression, purified
As to the kind of experiment: SPR; Biacore 3000; 6X His SH2 proteins held on a Ni-NTA chip, dye-free peptides in solution, equilibrium. In general terms: Surface plasmon resonance follows binding to a sensor surface in real time, without labels.

For test [2], the target named is T2, PIK3R3 C-terminal SH2 domain (human).
T2 construct: PIK3R3, human; source: bacterial expression, purified
Described as above.

Test [3] concerns the target T2, PIK3R3 C-terminal SH2 domain. In words: fluorescence polarisation; saturation binding in solution: rhodamine peptide fixed at 10 nM, protein titrated 0.002-10 uM, 20 min at room temperature; assay buffer 20 mM HEPES, 100 mM KCl, 0.1% Tween-20, 5 mM DTT, pH 7.8; apparent KD. On the technique in general: In fluorescence polarisation assays a small probe gives low polarisation when free and higher when bound to something large.

Test [4] concerns the target T3, PTK6 SH2 domain (human, UniProt Q13882 78-170).
T3 construct: PTK6, human; SH2 domain; source: bacterial expression culture, purified
As to the kind of experiment: fluorescence polarisation; competition; fluorescent peptide 10 nM, protein at four times the calculated KD, unlabeled competitor peptide at 11 serial 1:3 dilutions; at least 20 minutes; IC50 from a four-parameter log-logistic fit, one-site competition model.
T3 sequence (Q13882 78-170): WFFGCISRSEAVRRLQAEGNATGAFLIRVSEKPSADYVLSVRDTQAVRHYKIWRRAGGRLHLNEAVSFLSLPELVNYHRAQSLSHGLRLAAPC

For test [5], the target named is T1, PIK3R1 N-terminal SH2 domain. As to the kind of experiment: fluorescence polarisation; saturation binding in solution: rhodamine peptide fixed at 10 nM, protein titrated 0.002-10 uM, 20 min at room temperature; assay buffer 20 mM HEPES, 100 mM KCl, 0.1% Tween-20, 5 mM DTT, pH 7.8; apparent KD.
Test [6] addresses T4, PLCG1 C-terminal SH2 domain (human).
T4 construct: PLCG1, human; source: bacterial expression, purified
T4 sequence (P19174 whole entry, looked up): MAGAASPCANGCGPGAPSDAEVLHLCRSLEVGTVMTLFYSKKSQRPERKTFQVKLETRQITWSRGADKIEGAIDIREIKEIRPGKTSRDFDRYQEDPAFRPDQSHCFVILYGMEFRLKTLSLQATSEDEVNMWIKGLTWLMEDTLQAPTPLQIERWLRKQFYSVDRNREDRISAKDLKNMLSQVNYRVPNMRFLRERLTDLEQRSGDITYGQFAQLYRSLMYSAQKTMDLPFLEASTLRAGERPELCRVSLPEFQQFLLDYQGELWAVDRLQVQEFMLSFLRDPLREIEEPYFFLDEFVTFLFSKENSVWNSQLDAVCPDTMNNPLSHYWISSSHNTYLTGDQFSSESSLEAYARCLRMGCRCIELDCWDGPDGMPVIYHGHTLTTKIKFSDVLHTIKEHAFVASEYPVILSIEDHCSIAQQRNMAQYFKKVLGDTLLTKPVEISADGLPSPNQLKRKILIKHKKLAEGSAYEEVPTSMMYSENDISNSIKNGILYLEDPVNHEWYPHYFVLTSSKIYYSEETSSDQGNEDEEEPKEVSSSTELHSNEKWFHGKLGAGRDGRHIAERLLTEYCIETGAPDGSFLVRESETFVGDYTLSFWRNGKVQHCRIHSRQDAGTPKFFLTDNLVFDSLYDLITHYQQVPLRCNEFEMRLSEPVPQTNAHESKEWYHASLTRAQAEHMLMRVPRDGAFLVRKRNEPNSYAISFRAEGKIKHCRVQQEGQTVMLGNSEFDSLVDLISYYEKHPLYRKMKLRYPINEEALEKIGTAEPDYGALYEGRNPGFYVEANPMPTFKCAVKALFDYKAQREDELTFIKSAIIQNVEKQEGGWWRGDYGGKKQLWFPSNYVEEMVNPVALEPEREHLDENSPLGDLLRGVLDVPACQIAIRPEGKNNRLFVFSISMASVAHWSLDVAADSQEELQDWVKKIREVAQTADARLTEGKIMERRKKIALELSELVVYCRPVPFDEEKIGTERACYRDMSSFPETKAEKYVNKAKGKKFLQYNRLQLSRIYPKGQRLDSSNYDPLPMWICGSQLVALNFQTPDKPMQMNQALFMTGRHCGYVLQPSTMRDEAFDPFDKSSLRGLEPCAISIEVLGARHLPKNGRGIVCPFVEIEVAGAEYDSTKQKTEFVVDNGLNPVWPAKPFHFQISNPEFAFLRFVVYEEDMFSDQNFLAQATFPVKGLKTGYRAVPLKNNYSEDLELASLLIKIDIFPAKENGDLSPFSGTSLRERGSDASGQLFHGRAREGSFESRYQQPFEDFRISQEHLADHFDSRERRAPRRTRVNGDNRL
Described as above.

The target in test [7] is T5, GRB7 SH2 domain (human, UniProt Q14451 431-527).
T5 construct: GRB7, human; source: bacterial expression, purified
As to the kind of experiment: fluorescence polarisation; competition: rhodamine peptide 10 nM, protein at four times its KD, unlabeled competitor peptide in 11 serial 1:3 dilutions; Ki from IC50, one-site model.

Test [8] addresses T6, GRB2 SH2 domain (human, UniProt P62993 60-152).
T6 construct: GRB2, human; source: bacterial expression, purified
Described as above.

Test [9] deals with T7, PTK6 SH2 domain (human, UniProt Q13882 78-170).
T7 construct: PTK6, human; source: bacterial expression, purified
In words: fluorescence polarisation; saturation binding in solution: rhodamine peptide fixed at 10 nM, protein titrated 0.002-10 uM, 20 min at room temperature; assay buffer 20 mM HEPES, 100 mM KCl, 0.1% Tween-20, 5 mM DTT, pH 7.8; apparent KD.
T7 sequence (Q13882 78-170): as the sequence (Q13882 78-170) above

For test [10], the target named is T4, PLCG1 C-terminal SH2 domain. In words: SPR; Biacore 3000; 6X His SH2 proteins held on a Ni-NTA chip, dye-free peptides in solution, equilibrium.
Test [11] has as its target T3, PTK6 SH2 domain. In words: fluorescence polarisation; saturation binding in solution; rhodamine-labeled peptide fixed at 10 nM, protein titrated 0.002-10 µM (twelve two-fold dilutions); 20 minutes at room temperature in the dark; assay buffer 20 mM HEPES, 100 mM KCl, 0.1% Tween-20, 5 mM DTT, pH 7.8; apparent KD; assay detection threshold of 20 µM.

T5 sequence (Q14451 431-527): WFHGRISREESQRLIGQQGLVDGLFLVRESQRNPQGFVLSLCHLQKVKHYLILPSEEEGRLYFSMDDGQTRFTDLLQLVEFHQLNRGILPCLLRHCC
T6 sequence (P62993 60-152): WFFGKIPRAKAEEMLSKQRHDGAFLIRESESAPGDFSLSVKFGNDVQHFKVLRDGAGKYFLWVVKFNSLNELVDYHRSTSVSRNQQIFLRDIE

Take QEAN[pY]VPMTPGTD [Gab1 pY472 phosphopeptide, dye-free]: the results for the Kd in [1] and in test [2] were 251 nM and 18 nM, respectively.
Regarding FGCV[pY]HGTLLDN [MET pY1093 phosphopeptide, dye-free], the Kd in test [2] worked out at 3550 nM.
With TNHI[pY]SNLANCS [KIT pY936 phosphopeptide, dye-free], in test [2], the Kd was 4 nM.
For rhodamine-FGCV[pY]HGTLLDND (reading uncertain) [MET pY1093 phosphopeptide, rhodamine-labelled], the Kd in [3] turned out to be 2560 nM.
The term IC50 denotes the concentration that inhibits the measured activity by half. Consider FGTV[pY]KGIWIPD [ErbB2-pY735 phosphopeptide, unlabeled competitor], for which, in test [4], the IC50 is 148000 nM.
With Rhodamine-DPQD[pY]LLLINCQD (reading uncertain) [Gab1 pY183 phosphopeptide, rhodamine-labelled], the Kd worked out at 4260 nM in test [5], 3790 nM in test [3] and 2040 nM in [6].
Take Rhodamine-NNYV[pY]IDPTQLPD (reading uncertain) [KIT pY570 phosphopeptide, rhodamine-labelled]: the Kd in test [6] turned out to be 3830 nM.

B1: ErbB3pY1197 phosphopeptide, unlabeled competitor (peptide)
peptide: EDEE[pY]EYMNRRRD
notes: human ErbB3 around Tyr1197; source: synthetic peptide
As a reminder, the Ki is a measure of affinity in units of concentration, obtained from inhibition or displacement. A higher Ki goes with weaker binding. For B1, the inhibition constant Ki in test [7] stood at 113 nM. That is a sub-micromolar value.
In the case of Rhodamine-QEAN[pY]VPMTPGTD (reading uncertain) [Gab1 pY472 phosphopeptide, rhodamine-labelled], the values for the Kd in test [5] and in [3] were 2330 nM and 255 nM, respectively.

B2: ErbB4pY1208 phosphopeptide, unlabeled competitor (peptide)
peptide: NEPL[pY]LNTFANTD
notes: human ErbB4 around Tyr1208; source: synthetic peptide
With B2, the affinity in [8], expressed as Ki, was 6850 nM.

B3: ErbB3pY1289 phosphopeptide, rhodamine-labelled (peptide)
peptide: rhodamine-SEQG[pY]EEMRAFQD
modifications: reading uncertain
notes: human ErbB3 around Tyr1289; also called labeled peptide 7; source: synthetic peptide
B3: the Kd in [9] worked out at 2110 nM.
Regarding DPQD[pY]LLLINCQD [Gab1 pY183 phosphopeptide, dye-free], the values for the Kd in [1], in [2] and in test [10] were 722 nM, 137 nM and 146 nM, respectively.
Consider Rhodamine-FGTV[pY]KGIWIPD (reading uncertain) [ErbB2-pY735 phosphopeptide, rhodamine-labelled], for which the Kd in test [11] is not below 20000 nM.

B4: ErbB3pY1260 phosphopeptide, unlabeled competitor (peptide)
peptide: PDED[pY]EYMNRQRD
notes: human ErbB3 around Tyr1260; source: synthetic peptide
For B4, the Ki in test [7] is 131 nM.

B5: ErbB2pY1139 phosphopeptide, unlabeled competitor (peptide)
peptide: PQPE[pY]VNQPDVRD
notes: human ErbB2 around Tyr1139; source: synthetic peptide
As to B5, the Ki in test [8] came to 1710 nM.
For the molecule NNYV[pY]IDPTQLPD [KIT pY570 phosphopeptide, dye-free], the Kd in test [10] is 1360 nM.
